Reference: publication PMC11285730 (Open Biology, 2024)

What was measured:
Test in all cases: BLI
Conditions in all cases: both partners purified
[1] = biological target: T1, SARS-CoV-2 Beta RBD, biotin-tagged (SARS-CoV-2 Beta (B.1.351), E484K | N501Y, biotin)
T1 construct: source: Expi293, purified

[2] = biological target: T2, SARS-CoV-2 Omicron BA.1 RBD, biotin-tagged (SARS-CoV-2 Omicron BA.1, S371L | S375F | K/V417N | S477N | E484A | N501Y | Y505H, biotin)
T2 construct: source: Expi293, purified

[3] = biological target: T3, SARS-CoV-2 Omicron BA.4/5 RBD, biotin-tagged (SARS-CoV-2 Omicron BA.4/5, S371F | S375F | D405N | R408S | L452R | E484A | F486V | N501Y, biotin)
T3 construct: source: Expi293, purified

B1: B5-5 monomer (VHH)
VHH: QVQLVESGGGLVQPGGSLRLSCAVFGSTLDNYSVGWFRQLPGKEREGLACFSRRYGAPYYADSAKDRFTISRDNAKNTVDLQLNGLKPEDTAVYYCATRSGPYCTTSVSDFDDWGRGTQVTVSS
- Kd [1]: 0.0655 nM
- koff [1]: 1.29e-05 s⁻¹
- kon [1]: 216000 M⁻¹ s⁻¹
- Kd [2]: 0.355 nM
- koff [2]: 0.000204 s⁻¹
- kon [2]: 576000 M⁻¹ s⁻¹
- Kd [3]: 0.684 nM
- koff [3]: 0.000129 s⁻¹
- kon [3]: 190000 M⁻¹ s⁻¹

B2: A8 monomer (VHH)
VHH: QVQLVESGGGLVQAGGSLRLSCAASGGTFSTAAMGWFRQAPGEERECVASIGWRGVRTWYADSVKGRFTISRDNPQNTVYLQMNNLKSGDTAVYYCAASVGNYGLPWAHFEYDFWGQGIQVTVSS
- Kd [1]: 0.889 nM
- koff [1]: 0.000289 s⁻¹
- kon [1]: 326000 M⁻¹ s⁻¹
- Kd [2]: 15.7 nM
- koff [2]: 0.0053 s⁻¹
- kon [2]: 343000 M⁻¹ s⁻¹
- Kd [3]: 8.1 nM
- koff [3]: 0.00283 s⁻¹
- kon [3]: 349000 M⁻¹ s⁻¹

B3: H6 monomer (VHH)
VHH: QVQLVESGGGLVQPGGSLTLSCVASESSLAPYRVAWFRQAPGKEREGVSCISRDAHPTSTYYTASVKGRFTMSRDNAKNTVYLQMNSLKPSDTAVYYCATDLGGYCSDSNYPRAWWGQGTQVTVSS
- Kd [1]: 0.677 nM
- koff [1]: 0.000337 s⁻¹
- kon [1]: 498000 M⁻¹ s⁻¹
- Kd [2]: 22.7 nM
- koff [2]: 0.00553 s⁻¹
- kon [2]: 245000 M⁻¹ s⁻¹
- Kd [3]: 7.08 nM
- koff [3]: 0.00235 s⁻¹
- kon [3]: 333000 M⁻¹ s⁻¹
